# In publication PMC5286830, “Prokaryotic ubiquitin-like protein remains intrinsically disordered when covalently attached to proteasomal target proteins” (BMC Structural Biology, 2017):
# T1: Pup ligase CgluPafA-His6 (proteasome accessory factor A from Corynebacterium glutamicum) (Corynebacterium glutamicum, UniProt Q8NQE1 1-482)
# T1 construct: Pup ligase PafA, Corynebacterium glutamicum; The anisotropy methods call the titrated protein only 'CgluPafA'
# T1 sequence (looked up): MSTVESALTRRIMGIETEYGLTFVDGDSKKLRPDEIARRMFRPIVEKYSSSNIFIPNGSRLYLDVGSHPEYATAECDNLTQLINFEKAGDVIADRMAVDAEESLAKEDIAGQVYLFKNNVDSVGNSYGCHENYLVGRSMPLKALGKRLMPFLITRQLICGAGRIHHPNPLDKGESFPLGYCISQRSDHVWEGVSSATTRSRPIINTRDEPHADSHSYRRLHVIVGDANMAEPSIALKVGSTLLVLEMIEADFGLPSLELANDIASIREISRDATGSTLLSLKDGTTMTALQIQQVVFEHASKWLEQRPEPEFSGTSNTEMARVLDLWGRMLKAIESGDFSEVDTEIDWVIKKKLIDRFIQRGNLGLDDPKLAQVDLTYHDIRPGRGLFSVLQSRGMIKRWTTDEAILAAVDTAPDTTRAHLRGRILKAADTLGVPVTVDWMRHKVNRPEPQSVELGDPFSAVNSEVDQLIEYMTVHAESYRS
# B1: fluorescein-labeled CgluPup-Q30C variant (free) (natural protein, Corynebacterium glutamicum, UniProt Q8NQE0 1-64, looked up)
# chain: MNAKQTQIMGGGGRDEDNAEDSAQASGQVC(fluorescein‑5‑maleimide)INTEGVDSLLDEIDGLLENNAEEFVRSYVQKGGE
# notes: prokaryotic ubiquitin-like protein Pup, Corynebacterium glutamicum; also called CgluPup-Q30C-Fluorescein; free CgluPup-Q30C
# Molecular target: T1, Pup ligase CgluPafA-His6 (proteasome …)
# Test: fluorescence polarisation; fluorescence anisotropy on a Synergy BioTek plate reader; 12.5 nM CgluPup-Q30C-Fluorescein labeled substrate or free CgluPup with 0 to 30 uM CgluPafA; 50 mM Tris pH 8.04 (RT), 150 mM NaCl, 0.5 mM EDTA, 0.001% Tween-20
# Details: both partners purified
binder,measurement,value
B1,Kd,1820 ± 180 nM
